Experimental data from patent US20130040882A1, “USE OF FIBROBLAST GROWTH FACTOR FRAGMENTS” (NOVARTIS AG, priority 2003, published 2013).
Where “and” joins values, the source holds several entries; their conditions need not be identical. Identical values can stand only once. Like-named read-outs stand apart in the source and are kept apart here.

How the values were obtained:
somatostatin receptors = conditions: cited from earlier work
[1] = test system: transcript levels in organs; assay type: in vivo, cynomolgus monkey

## cyclo[4-(NH2—C2H4—NH—CO—O)Pro-Phg-DTrp-Lys-Tyr(4-Bzl)-Phe] [SOM230]
Somatostatin receptors
  Binding to somatostatin receptors: binds to all somatostatin receptors except SSTR4

B1: FGF23CTP: unique 75-mer COOH-terminal peptide of FGF-23, SEQ ID NO: 2 (peptide, listed as Homo sapiens)
chain: HTRSAEDDSERDPLNVLKPRARMTPAPASCSQELPSAEDNSPMASDPLGVVRGGRVNTHAGGTGPEGCRPFAKFI
[1]; AV node
  Gene expression level after 2 weeks, mean: EGF-response factor 1: 1,819.7
  Gene expression level after 2 weeks, mean: Endothelial differentiation receptor 6: 306.9
  Gene expression level after 2 weeks, mean: FLT receptor tyrosine kinase 1: 120.1
  Gene expression level after 2 weeks, mean: Insulin-like growth factor II: 565.275
  Gene expression level after 2 weeks, mean: Insulin-like growth factor binding protein 2: 880.75
  Gene expression level after 2 weeks, mean: Vascular endothelial growth factor-A (VEGFA): 363.7
[1]; Adrenal
  Gene expression level after 2 weeks, mean: Activin A receptor type II: 58.5
  Gene expression level after 2 weeks, mean: Bone morphogenetic protein 1: 210.6
  Gene expression level after 2 weeks, mean: Bone morphogenetic protein receptor, type II: 101.25
  Gene expression level after 2 weeks, mean: Cdk-inhibitor 1A p21 (Cip1): 51.75
  Gene expression level after 2 weeks, mean: E2F-5: 39.6
  Gene expression level after 2 weeks, mean: FGF receptor-1: 624.2
  Gene expression level after 2 weeks, mean: FLK1 receptor tyrosine kinase: 42.7
  Gene expression level after 2 weeks, mean: VE-cadherin: 110.2
[1]; B marrow
  Gene expression level after 2 weeks, mean: Colony-stimulating factor-1: 981.3
  Gene expression level after 2 weeks, mean: Insulin-like growth factor II: 209.5
[1]; Bone Marrow
  Gene expression level after 2 weeks, mean: Angiopoietin-1: 123.2
  Gene expression level after 2 weeks, mean: Cyclin E2: 257
  Gene expression level after 2 weeks, mean: E2F dimerization partner 2 (DP2): 1222
  Gene expression level after 2 weeks, mean: Endothelial differentiation receptor 4: 494.8
  Gene expression level after 2 weeks, mean: Mdm2: 20
  Gene expression level after 2 weeks, mean: TEK tyrosine kinase, angiopoietin receptor: 52.7
[1]; Duodenum
  Gene expression level after 2 weeks, mean: Bone morphogenetic protein 2A: 55.3
  Gene expression level after 2 weeks, mean: Cdk-inhibitor p57KIP2 (KIP2): 138.6
  Gene expression level after 2 weeks, mean: Cyclin I: 900.6
  Gene expression level after 2 weeks, mean: FLT receptor tyrosine kinase 1: 70.7
  Gene expression level after 2 weeks, mean: Farnesol receptor HRR-1: 53.1
[1]; Hippocampus
  Gene expression level after 2 weeks, mean: Cyclin-dependent kinase 5: 118.7
  Gene expression level after 2 weeks, mean: E2F-4: 153.4
  Gene expression level after 2 weeks, mean: Neuregulin 1: 86.075
[1]; Muscle
  Gene expression level after 2 weeks, mean: Cyclin D3: 149.2
  Gene expression level after 2 weeks, mean: E2F-4: 643.8
  Gene expression level after 2 weeks, mean: Endothelial differentiation receptor 6: 181.9
  Gene expression level after 2 weeks, mean: Insulin-like growth factor I: 107.65
  Gene expression level after 2 weeks, mean: Placental growth factor: 91.4
  Gene expression level after 2 weeks, mean: Retinoid X receptor-gamma: 580.9
  Gene expression level after 2 weeks, mean: Transforming growth factor β2: 58.3
  Gene expression level after 2 weeks, mean: p53 binding protein: 138.7
[1]; ROHY
  Gene expression level after 2 weeks, mean: Activin A receptor type II: 54.9
  Gene expression level after 2 weeks, mean: Angiopoietin-1: 162.5
  Gene expression level after 2 weeks, mean: Brain-specific angiogenesis inhibitor 1 (MAS5): 225.1
  Gene expression level after 2 weeks, mean: Cdk-inhibitor p19: 267.8
  Gene expression level after 2 weeks, mean: Colony-stimulating factor-1: 802.5
  Gene expression level after 2 weeks, mean: Cyclin A/CDK2-associated p19 (Skp1): 1069.6
  Gene expression level after 2 weeks, mean: Cyclin D2: 197.1
  Gene expression level after 2 weeks, mean: Cyclin-dependent kinase 4: 197.6
  Gene expression level after 2 weeks, mean: E2F-4: 245.9
  Gene expression level after 2 weeks, mean: EPHB2v protein-tyrosine kinase: 119.1
  Gene expression level after 2 weeks, mean: Epidermal growth factor receptor: 103.1
  Gene expression level after 2 weeks, mean: FGF receptor-1: 932.4
  Gene expression level after 2 weeks, mean: Growth differentiation factor 1: 1,410.2
  Gene expression level after 2 weeks, mean: RalGDS/AF-6 (inhibitor of Cyclin D1): 300.5
  Gene expression level after 2 weeks, mean: Retinoblastoma 1: 467.9
  Gene expression level after 2 weeks, mean: Retinoblastoma binding protein 4: 164
  Gene expression level after 2 weeks, mean: Retinoid X receptor-beta: 106.925
  Gene expression level after 2 weeks, mean: S-phase response (cyclin-related): 176
  Gene expression level after 2 weeks, mean: Transforming growth factor β3: 88.4
  Gene expression level after 2 weeks, mean: Tumour necrosis factor receptor-2: 126.4
  Gene expression level after 2 weeks, mean: VEGFB: 626.2
  Gene expression level after 2 weeks, mean: Vascular endothelial growth factor-A (VEGFA): 326.175
  Gene expression level after 2 weeks, mean: p53 binding protein: 154.7
[1]; Re atrium
  Gene expression level after 2 weeks, mean: S-phase response (cyclin-related): 159.1
[1]; Retina
  Gene expression level after 2 weeks, mean: Activin A receptor type II: 34.1
  Gene expression level after 2 weeks, mean: Brain-specific angiogenesis inhibitor 2: 153.2
  Gene expression level after 2 weeks, mean: Cyclin D2: 132
  Gene expression level after 2 weeks, mean: Insulin-like growth factor binding protein 2: 807.9
[1]; Thymus
  Gene expression level after 2 weeks, mean: Cdk-inhibitor p57KIP2 (KIP2): 247.9
  Gene expression level after 2 weeks, mean: FGF receptor-1: 153.2
[1]; cynomolgus monkey, in vivo
  Gene expression level after 2 weeks, mean: TNFR-related death receptor-3: 82.4
  Gene expression level after 2 weeks, mean: TNFR-related death receptor-6: 144.65 and 98.8
[1]; kidney
  Gene expression level after 2 weeks, mean: Bone morphogenetic protein 10: 138.6
  Gene expression level after 2 weeks, mean: Colony-stimulating factor-1: 659.75
  Gene expression level after 2 weeks, mean: E2F-1: 198.5
  Gene expression level after 2 weeks, mean: E2F-4: 741.6
  Gene expression level after 2 weeks, mean: Neuregulin 1: 150.725
[1]; liver
  Gene expression level after 2 weeks, mean: Bone morphogenetic protein 10: 134.1
  Gene expression level after 2 weeks, mean: EPHB2v protein-tyrosine kinase: 82.6
  Gene expression level after 2 weeks, mean: Endothelial differentiation receptor 4: 391.7
  Gene expression level after 2 weeks, mean: Farnesol receptor HRR-1: 383.3
  Gene expression level after 2 weeks, mean: Insulin-like growth factor I: 1,055.4
  Gene expression level after 2 weeks, mean: Insulin-like growth factor II: 606.9
  Gene expression level after 2 weeks, mean: Insulin-like growth factor binding protein 1: 1,517
  Gene expression level after 2 weeks, mean: Insulin-like growth factor binding protein 2: 3,858.6
[1]; rostral hypothalamus
  Gene expression level after 2 weeks, mean: 14-3-3 protein tau: 1,748.5
  Gene expression level after 2 weeks, mean: Amyloid beta precursor protein (cytoplasmic tail)-binding protein 2: 191.3
  Gene expression level after 2 weeks, mean: Anion exchanger: 844.5
  Gene expression level after 2 weeks, mean: Axl: 60.3
  Gene expression level after 2 weeks, mean: BAX: 134.4
  Gene expression level after 2 weeks, mean: Bcl-2-binding protein Nip3: 794.8
  Gene expression level after 2 weeks, mean: Bmi-1 homeobox gene repressor: 374.7
  Gene expression level after 2 weeks, mean: CMP-sialic acid transporter: 135.075
  Gene expression level after 2 weeks, mean: CREB binding protein: 93
  Gene expression level after 2 weeks, mean: Ca2+-ATPase: 174.4
  Gene expression level after 2 weeks, mean: Calcineurin A1: 173.975
  Gene expression level after 2 weeks, mean: Cholecystokinin A receptor: 196
  Gene expression level after 2 weeks, mean: Connexin 43: 184.5
  Gene expression level after 2 weeks, mean: Delta 2 catenin: 118
  Gene expression level after 2 weeks, mean: Erk3: 409.5
  Gene expression level after 2 weeks, mean: FYN: 958.1
  Gene expression level after 2 weeks, mean: GDP dissociation inhibitor beta: 125.8
  Gene expression level after 2 weeks, mean: Glycogen synthase kinase 3: 155.5
  Gene expression level after 2 weeks, mean: Hypoxia-inducible factor 1 alpha: 286.5
  Gene expression level after 2 weeks, mean: Inhibitor of DNA binding 4: 67.6
  Gene expression level after 2 weeks, mean: JNK2: 79.9
  Gene expression level after 2 weeks, mean: Jagged 1: 70.3
  Gene expression level after 2 weeks, mean: Janus kinase 1: 43.3
  Gene expression level after 2 weeks, mean: Mnb (Minibrain): 446
  Gene expression level after 2 weeks, mean: Myelin oligodendrocyte glycoprotein: 62.7
  Gene expression level after 2 weeks, mean: Myosin regulatory light chain: 177.2
  Gene expression level after 2 weeks, mean: NIPSNAP2 (glioblastoma co-amplified): 118.7
  Gene expression level after 2 weeks, mean: Na,K-ATPase: 1,453.2
  Gene expression level after 2 weeks, mean: Neural cell adhesion molecule 1: 988.6
  Gene expression level after 2 weeks, mean: Neurofibromin: 144
  Gene expression level after 2 weeks, mean: Oligodendrocyte myelin glycoprotein OMGP: 773.5
  Gene expression level after 2 weeks, mean: PKR Interferon-inducible: 128.25
  Gene expression level after 2 weeks, mean: Phosphodiesterase 4B: 60.6
  Gene expression level after 2 weeks, mean: Phosphoinositide 3-kinase: 241.5
  Gene expression level after 2 weeks, mean: Phosphoinositide-3-kinase, catalytic, delta polypeptide: 241.5
  Gene expression level after 2 weeks, mean: Phospholipase C: 72.1
  Gene expression level after 2 weeks, mean: Pim1: 327.5
  Gene expression level after 2 weeks, mean: Pinin, Desmosome associated protein: 119.7
  Gene expression level after 2 weeks, mean: RAB1: 143.9
  Gene expression level after 2 weeks, mean: RAB5: 809.8
  Gene expression level after 2 weeks, mean: RAB11A: 344.9
  Gene expression level after 2 weeks, mean: RAB11B: 71.2
  Gene expression level after 2 weeks, mean: RAS p21 protein activator: 163
  Gene expression level after 2 weeks, mean: RNP24: 558.2
  Gene expression level after 2 weeks, mean: Reticulon 4: 1,309.2
  Gene expression level after 2 weeks, mean: Retinoic acid receptor: 110
  Gene expression level after 2 weeks, mean: Ribosomal protein kinase B (RSK-B): 120
  Gene expression level after 2 weeks, mean: SFRS protein kinase 2: 205.8
  Gene expression level after 2 weeks, mean: SNARE: 55.4
  Gene expression level after 2 weeks, mean: STAT1: 119.3
  Gene expression level after 2 weeks, mean: Sodium/hydrogen exchanger: 785.5
  Gene expression level after 2 weeks, mean: Sphingomyelinase: 259.5
  Gene expression level after 2 weeks, mean: TYRO3: 163.1
  Gene expression level after 2 weeks, mean: TrkB: 40.8
  Gene expression level after 2 weeks, mean: Tropomyosin 2 (beta): 131.6
  Gene expression level after 2 weeks, mean: Tropomyosin 4: 140.6
  Gene expression level after 2 weeks, mean: c-abl: 119.4
  Gene expression level after 2 weeks, mean: c-raf: 327.5
  Gene expression level after 2 weeks, mean: c-yes: 64.7
[1]; second line, organ cell empty (below ROHY)
  Gene expression level after 2 weeks, mean: RalGDS/AF-6 (inhibitor of Cyclin D1): 354.5
